Results reported in paper PMC4153549.

System: Grsf1-GST
Test: EMSA
Conditions: 10 mM HEPES-NaOH pH 7.9, 25 mM KCl, 1.5 mM EDTA, 4% glycerol, 0.25 mM DTT, 7.5 ug/uL heparin, 25 ng/uL yeast tRNA, 20 min at 30 C; native 5% PAGE

Row | Substance | Kd
1 | Use1 5'UTR WT A(G)4A probe | 527 nM
2 | Use1 dG4 probe (GGGG deleted from A(G)4A) | 4400 nM
